Assay results taken from publication doi:10.1101/2022.02.09.479832v2 (biorxiv, 2022).
Where two headings read alike, the source gives them in different places.

Assays:
PmIleRS1 [1] = molecular target: T1, PmIleRS1 (Priestia megaterium, UniProt A0A0B6A6A8); test: time courses fitted to slow-binding equation, Ki = koff/kon; type: biochemical; conditions: competitive, tight binding, 30 °C
T1 sequence (A0A0B6A6A8 1-921): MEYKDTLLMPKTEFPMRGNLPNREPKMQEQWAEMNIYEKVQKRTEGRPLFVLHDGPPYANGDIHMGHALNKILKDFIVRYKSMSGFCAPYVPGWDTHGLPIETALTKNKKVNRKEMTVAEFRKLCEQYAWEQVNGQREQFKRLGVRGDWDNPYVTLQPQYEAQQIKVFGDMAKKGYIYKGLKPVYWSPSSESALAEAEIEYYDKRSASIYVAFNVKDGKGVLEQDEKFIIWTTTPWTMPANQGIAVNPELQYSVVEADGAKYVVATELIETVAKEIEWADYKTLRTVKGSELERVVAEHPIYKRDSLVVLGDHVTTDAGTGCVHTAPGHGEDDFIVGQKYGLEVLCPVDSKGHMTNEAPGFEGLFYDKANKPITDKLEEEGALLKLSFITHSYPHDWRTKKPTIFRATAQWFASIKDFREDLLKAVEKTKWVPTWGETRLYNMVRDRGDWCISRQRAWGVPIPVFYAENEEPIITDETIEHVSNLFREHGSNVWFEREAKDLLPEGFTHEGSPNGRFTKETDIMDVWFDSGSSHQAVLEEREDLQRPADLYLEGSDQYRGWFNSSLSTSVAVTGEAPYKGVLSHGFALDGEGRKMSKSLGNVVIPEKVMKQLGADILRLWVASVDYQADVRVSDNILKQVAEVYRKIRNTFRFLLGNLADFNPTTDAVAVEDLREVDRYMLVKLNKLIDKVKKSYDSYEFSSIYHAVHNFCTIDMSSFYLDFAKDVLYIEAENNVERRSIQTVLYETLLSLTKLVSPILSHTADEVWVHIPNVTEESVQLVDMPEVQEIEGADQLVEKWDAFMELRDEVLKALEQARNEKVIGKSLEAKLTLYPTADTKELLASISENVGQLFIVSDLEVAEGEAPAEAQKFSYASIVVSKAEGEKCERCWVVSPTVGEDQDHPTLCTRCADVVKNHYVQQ

PmIleRS2 [2] = molecular target: T2, PmIleRS2 (Priestia megaterium, UniProt A0A0B6AVD3); test: biochemical
T2 sequence (A0A0B6AVD3 1-1032): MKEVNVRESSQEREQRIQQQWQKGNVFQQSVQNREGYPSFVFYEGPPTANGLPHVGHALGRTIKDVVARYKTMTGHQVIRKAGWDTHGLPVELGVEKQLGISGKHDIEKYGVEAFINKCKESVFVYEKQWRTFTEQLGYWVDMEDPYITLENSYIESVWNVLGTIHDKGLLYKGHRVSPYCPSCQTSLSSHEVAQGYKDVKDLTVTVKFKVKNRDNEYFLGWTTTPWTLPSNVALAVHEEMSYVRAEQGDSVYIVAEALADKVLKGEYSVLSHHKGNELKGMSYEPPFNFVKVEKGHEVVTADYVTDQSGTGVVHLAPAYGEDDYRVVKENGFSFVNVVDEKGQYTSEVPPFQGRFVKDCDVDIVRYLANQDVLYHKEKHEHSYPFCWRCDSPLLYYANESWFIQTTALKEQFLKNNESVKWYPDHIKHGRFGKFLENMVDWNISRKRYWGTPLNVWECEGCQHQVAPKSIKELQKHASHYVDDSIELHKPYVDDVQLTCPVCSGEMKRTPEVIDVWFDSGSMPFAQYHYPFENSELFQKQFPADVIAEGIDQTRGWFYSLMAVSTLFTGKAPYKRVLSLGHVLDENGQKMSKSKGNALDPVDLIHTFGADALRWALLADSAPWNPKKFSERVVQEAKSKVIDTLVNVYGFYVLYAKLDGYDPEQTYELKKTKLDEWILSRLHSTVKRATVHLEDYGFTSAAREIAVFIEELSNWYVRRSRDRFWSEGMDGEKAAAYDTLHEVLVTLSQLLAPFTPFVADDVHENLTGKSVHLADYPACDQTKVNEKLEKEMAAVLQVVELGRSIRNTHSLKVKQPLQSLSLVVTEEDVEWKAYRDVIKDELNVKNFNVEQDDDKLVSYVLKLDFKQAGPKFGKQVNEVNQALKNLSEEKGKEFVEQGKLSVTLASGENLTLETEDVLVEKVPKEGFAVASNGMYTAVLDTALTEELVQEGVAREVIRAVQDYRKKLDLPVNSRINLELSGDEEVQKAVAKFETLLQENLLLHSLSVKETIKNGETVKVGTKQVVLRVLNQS

PmIleRS1 [3] = molecular target: T1, PmIleRS1; test: biochemical; conditions: read-out: koff
PmIleRS2 [4] = molecular target: T2, PmIleRS2; test: biochemical; remark: listed apart in the source
PmIleRS1 [5] = molecular target: T1, PmIleRS1; test: biochemical; conditions: read-out: kon
[6] = substrate: CC[C@H](C)[C@H](N)C(=O)O; test: purified protein, by the assay type
[7] = substrate: Nc1ncnc2c1ncn2[C@@H]1O[C@H](COP(=O)(O)OP(=O)(O)OP(=O)(O)O)[C@@H](O)[C@H]1O; test: purified protein, by the assay type
[8] = substrate: CC[C@H](C)[C@H](N)C(=O)O; test: purified protein, by the assay type; conditions: 30.0 °C
[9] = substrate: Nc1ncnc2c1ncn2[C@@H]1O[C@H](COP(=O)(O)OP(=O)(O)OP(=O)(O)O)[C@@H](O)[C@H]1O; test: purified protein, by the assay type; conditions: 30.0 °C
[10] = substrate: CC[C@@H](C)[C@@H](N)C(=O)O; test: purified protein, by the assay type; conditions: 30.0 °C
[11] = substrate: CCC[C@H](N)C(=O)O; test: purified protein, by the assay type; conditions: 30.0 °C
[12] = substrate: CC(C)[C@H](N)C(=O)O; test: purified protein, by the assay type; conditions: 30.0 °C

C/C(=C\C(=O)OCCCCCCCCC(=O)O)C[C@@H]1OC[C@H](C[C@@H]2O[C@H]2[C@@H](C)[C@H](C)O)[C@@H](O)[C@H]1O [mupirocin]
Ki (PmIleRS1 [1]): 0.285 ± 0.146 nM | Ki (PmIleRS2 [2]): 1080 ± 60 nM | koff (PmIleRS1 [3]): 0.00043 s⁻¹ | Ki (PmIleRS2 [4]): 1040 ± 40 nM | kon (PmIleRS1 [5]): 1.51e+06 M⁻¹ s⁻¹

B1: PmIleRS2 (Priestia megaterium NBRC 15308 = ATCC 14581) (protein)
chain: MKEVNVRESSQEREQRIQQQWQKGNVFQQSVQNREGYPSFVFYEGPPTANGLPHVGHALGRTIKDVVARYKTMTGHQVIRKAGWDTHGLPVELGVEKQLGISGKHDIEKYGVEAFINKCKESVFVYEKQWRTFTEQLGYWVDMEDPYITLENSYIESVWNVLGTIHDKGLLYKGHRVSPYCPSCQTSLSSHEVAQGYKDVKDLTVTVKFKVKNRDNEYFLGWTTTPWTLPSNVALAVHEEMSYVRAEQGDSVYIVAEALADKVLKGEYSVLSHHKGNELKGMSYEPPFNFVKVEKGHEVVTADYVTDQSGTGVVHLAPAYGEDDYRVVKENGFSFVNVVDEKGQYTSEVPPFQGRFVKDCDVDIVRYLANQDVLYHKEKHEHSYPFCWRCDSPLLYYANESWFIQTTALKEQFLKNNESVKWYPDHIKHGRFGKFLENMVDWNISRKRYWGTPLNVWECEGCQHQVAPKSIKELQKHASHYVDDSIELHKPYVDDVQLTCPVCSGEMKRTPEVIDVWFDSGSMPFAQYHYPFENSELFQKQFPADVIAEGIDQTRGWFYSLMAVSTLFTGKAPYKRVLSLGHVLDENGQKMSKSKGNALDPVDLIHTFGADALRWALLADSAPWNPKKFSERVVQEAKSKVIDTLVNVYGFYVLYAKLDGYDPEQTYELKKTKLDEWILSRLHSTVKRATVHLEDYGFTSAAREIAVFIEELSNWYVRRSRDRFWSEGMDGEKAAAYDTLHEVLVTLSQLLAPFTPFVADDVHENLTGKSVHLADYPACDQTKVNEKLEKEMAAVLQVVELGRSIRNTHSLKVKQPLQSLSLVVTEEDVEWKAYRDVIKDELNVKNFNVEQDDDKLVSYVLKLDFKQAGPKFGKQVNEVNQALKNLSEEKGKEFVEQGKLSVTLASGENLTLETEDVLVEKVPKEGFAVASNGMYTAVLDTALTEELVQEGVAREVIRAVQDYRKKLDLPVNSRINLELSGDEEVQKAVAKFETLLQENLLLHSLSVKETIKNGETVKVGTKQVVLRVLNQS
Km [6]: 6.2 ± 0.8 µM | kcat/Km [6]: 150000 M⁻¹ s⁻¹ | Km ([6]; 30.0 °C): 69.3 ± 5.5 µM | kcat/Km ([6]; 30.0 °C): 940000 M⁻¹ s⁻¹ | Km [7]: 76.4 ± 1.4 µM | kcat [7]: 0.96 ± 0.03 s⁻¹ | kcat/Km [7]: 10000 M⁻¹ s⁻¹ | Km ([7]; 30.0 °C): (3.8 ± 0.2) × 10^3 uM | kcat/Km ([7]; 30.0 °C): 20000 M⁻¹ s⁻¹ | Km [8]: 48.6 ± 1.9 µM | kcat/Km [8]: 1.4e+06 M⁻¹ s⁻¹ | Km [9]: (1.6 ± 0.1) × 10^3 uM | kcat/Km [9]: 40000 M⁻¹ s⁻¹ | Km [10]: (2.3 ± 0.1) × 10^3 uM | kcat [10]: 1.54 ± 0.03 s⁻¹ | kcat/Km [10]: 670 M⁻¹ s⁻¹ | Km [11]: (7.97 ± 0.84) × 10^3 uM | kcat [11]: 33 ± 1 s⁻¹ | kcat/Km [11]: 4100 M⁻¹ s⁻¹ | Km [12]: (5.4 ± 0.4) × 10^3 uM | kcat [12]: 39 ± 1 s⁻¹ | kcat/Km [12]: 7000 M⁻¹ s⁻¹
